Assay results as given in patent US9226899B2, “Particulate hyaluronic acid and flavonoid formulations for cellular delivery of bioactive agents” (AGENCY FOR SCIENCE, TECHNOLOGY AND RESEARCH, priority 2009, dated 2016).

Tests used:
[1] = biological target: T1, lysozyme (Gallus gallus, UniProt P00698); test: Lysozyme activity assay (M. lysodeikticus turbidity); format: biochemical, chicken
T1 construct: lysozyme from chicken egg white; purchased Sigma-Aldrich; host or cells: chicken egg white (natural source)
T1 sequence (P00698 19-147): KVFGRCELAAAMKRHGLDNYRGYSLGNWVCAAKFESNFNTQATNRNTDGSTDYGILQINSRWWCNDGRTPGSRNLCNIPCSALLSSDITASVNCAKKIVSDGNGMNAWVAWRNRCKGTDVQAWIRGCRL
Description: To determine the activity of lysozyme, 20 μl of sample containing either free lysozyme or HA-EGCG/lysozyme particles was added to a well of a 96-well assay plate, followed by 100 μl of M. lysodeikticus (0.15% (w/v) in PBS). The decrease in turbidity was monitored by a Tecan Infinite 200 microplate reader by measuring the absorbance of the sample at 450 nm at room temperature every 3 min for 15 min. The absorbance decay plot was fitted to a linear equation, and the slopes were used to determine iysozyme activity. Regarding the restoration of activity of lysozyme that is complexed with HA-EGCG, the following protocol was used: the HA-EGCG/lysozyme particles were first allowed to self-assemble for 10 min at room temperature, with free lysozyme diluted with PBS as a control. A constant volume of Triton-X of different concentrations was then added to each sample (to a final concentration of 0.001, 0.01 or 0.1% w/v), incubated at room temperature for a further 5 min before the lysozyme substrate, M. lysodeikticus, was added, and the absorbance monitored as described above.

[2] = biological target: T1, lysozyme; test: Fluorescence quenching studies; format: binding, chicken
Description: The fluorescence emission spectra of the HA-EGCG/lysozyme particles, HA/lysozyme mixtures, free lysozyme alone, free HA-EGCG carrier or free HA alone were measured at an excitation wavelength of 280 nm using a fluorescence spectrophotometer (Hitachi, Japan). Difference spectra between the HA-EGCG/lysozyme particles and HA-EGCG were obtained to determine the net fluorescence of lysozyme in particles of varying HA-EGCG concentrations. The same was done for HA/lysozyme mixtures.

[3] = test system: HCT-116 cells; test: Cell viability studies (AlamarBlue); format: cell-based, human; details: delivered together with chloroquine; data not shown
Description: HCT-116 human colon carcinoma cells were obtained from ATCC, and cultured in McCoy's 5A medium supplemented with 10% FBS and 100 units/mL of penicillin/streptomycin.
HCT-116 cells were seeded at 10,000 cells per well in 96-well microplates with complete growth medium and left to attach for 48 h. Test reagents were prepared by first mixing the linear PEI (polyethylenimine) or chloroquine solution (fixed at 100 μM)) with Granzyme B (fixed at 2 μg/ml) for 15 min before adding HA-EGCG solution to the mixture and allow complexation to take place for 45 min. The medium in the wells was then aspirated and the cells were treated with the respective reagents for 48 h (all dilutions were made in serum-free medium). Cell viability was analyzed using AlamarBlue. Before analysis, the medium was aspirated and the cells were gently washed with PBS once before a mixture of 10 μl of alamarblue reagent with 100 μl of serum-containing medium was added to each well. The cells were incubated for 2 h and the fluorescence emission of each well was measured using a Tecan infinite Microplate Reader. The viabilities of treated cells were evaluated as a percentage of the negative control. Each data set is an average of 4 repeats.

## free lysozyme: lysozyme from chicken egg white, model protein
[1]; 0.001% w/v Triton-X, % of original activity of free lysozyme (FIG. 9b)
  apparent lysozyme activity: 140%
[1]; 0.01% and 0.1% Triton-X (FIG. 9b)
  maximum apparent lysozyme activity (plateau): about 160%

## (−)-epigallocatechin gallate [EGCG]
[2]; EX 280 nm, concentration-dependent (FIG. 5)
  quenching of intrinsic lysozyme fluorescence: can quench the intrinsic fluorescence of lysozyme
[2]; free EGCG vs HA-EGCG (FIG. 7)
  quenching of intrinsic lysozyme fluorescence at the same EGCG concentration: quenches intrinsic lysozyme fluorescence to a smaller degree than HA-EGCG

B1: Granzyme: protease secreted by cytotoxic T lymphocytes, activates caspase and induces apoptosis (protein, UniProt P04187 21-247, looked up)
Granzyme B(G,H): IIGGHEVKPHSRPYMALLSIKDQQPEAICGGFLIREDFVLTAAHCEGSIINVTLGAHNIKEQEKTQQVIPMVKCIPHPDYNPKTFSNDIMLLKLKSKAKRTRAVRPLNLPRRNVNVKPGDVCYVAGWGRMAPMGKYSNTLQEVELTVQKDRECESYFKNRYNKTNQICAGDPKTKRASFRGDSGGPLVCKKVAAGIVSYGYKDGSPPRAFTKVSSFLSWIKKTMKSS
[3]
  cytotoxicity in HCT-116 cells: induced cytotoxicity in HCT-116 cells
